Assay results as given in the FLAb antibody collection (doi:10.1101/2023.12.08.570889).

How the values were obtained:
ACVR2B, Q13705 = experiment: Kd (SPR)
C5, P01031 = experiment: Kd (SPR)

ACVR2B, Q13705, sequence (Q13705 whole entry, looked up): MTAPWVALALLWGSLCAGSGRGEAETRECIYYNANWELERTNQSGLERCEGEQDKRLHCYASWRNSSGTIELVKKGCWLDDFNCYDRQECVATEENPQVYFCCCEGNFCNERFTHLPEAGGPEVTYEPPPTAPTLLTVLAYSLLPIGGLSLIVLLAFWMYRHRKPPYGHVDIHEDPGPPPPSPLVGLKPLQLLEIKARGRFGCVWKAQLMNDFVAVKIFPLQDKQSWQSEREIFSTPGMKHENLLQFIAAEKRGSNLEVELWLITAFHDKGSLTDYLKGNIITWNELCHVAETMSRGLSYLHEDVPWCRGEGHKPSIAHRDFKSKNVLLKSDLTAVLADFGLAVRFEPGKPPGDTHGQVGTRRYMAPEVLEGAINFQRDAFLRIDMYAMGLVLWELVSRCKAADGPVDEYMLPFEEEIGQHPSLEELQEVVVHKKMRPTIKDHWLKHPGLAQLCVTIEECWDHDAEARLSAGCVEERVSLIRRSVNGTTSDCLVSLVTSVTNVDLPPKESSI

| Binder | Kd (ACVR2B, Q13705) [nM] | Kd (C5, P01031) [nM] |
| --- | --- | --- |
| unnamed (protein) chain 1: QVQLVQSGAEVKKPGASVKVSCKASGYTFTSTYINWVRQAPGQGLEWMGTINPVTGNTSYAQKFQGRVTMTRDTSISTAYMELSRLRSDDTAVYYCARGGYFDYWGQGTLVTVSS chain 2: QSALTQPASVSGSPGQSITISCTGTSSDVGSYNYVNWYQQHPGKAPKLMIYGVSKRPSGVSNRFSGSKSGNTASLTISGLQAEDEADYYCGTFAGGSYYGVFGGGTKLTVL | 7.87 |  |
| unnamed (protein) chain 1: QVQLVQSGAEVKKPGASVKVSCKASGYTFTSSGINWVRQAPGQGLEWMGTINPVTGNTSYAQKFQGRVTMTRDTSISTAYMELSRLRSDDTAVYYCARGNYMDYWGQGTLVTVSS chain 2: QSALTQPASVSGSPGQSITISCTGTSSDVGSYNYVNWYQQHPGKAPKLMIYGVSKRPSGVSNRFSGSKSGNTASLTISGLQAEDEADYYCGTFAGGSYYGVFGGGTKLTVL | 0.581 |  |
| unnamed (protein) chain 1: QVQLVQSGAEVKKPGASVKVSCKASGYIFSNYWIQWVRQAPGQGLEWMGEILPGSGSTEYTENFKDRVTMTRDTSTSTVYMELSSLRSEDTAVYYCARYRYGDTPTIYFDYWGQGTLVTVSS chain 2: DIQMTQSPSSLSASVGDRVTITCGASENIYGALNWYQQKPGKAPKLLIYGATNLADGVPSRFSGSGSGTDFTLTISSLQPEDFATYYCQNVLNTPLTFGQGTKVEIK |  | 689 |
| unnamed (protein) chain 1: QVQLVQSGAEVKKPGASVKVSCKASGYIFSNYWIQWVRQAPGQGLEWMGEILPGSGSTEYTENFKDRVTMTRDTSTSTVYMELSSLRSEDTAVYYCARYRWGDTPYIYFDYWGQGTLVTVSS chain 2: DIQMTQSPSSLSASVGDRVTITCGASENIYGALNWYQQKPGKAPKLLIYGATNLADGVPSRFSGSGSGTDFTLTISSLQPEDFATYYCQNVLNTPLTFGQGTKVEIK |  | 850 |
| unnamed (protein) chain 1: QVQLVQSGAEVKKPGASVKVSCKASGYIFSNYWIQWVRQAPGQGLEWMGEILPGSGSTEYTENFKDRVTMTRDTSTSTVYMELSSLRSEDTAVYYCARLYYGDTPYIYFDYWGQGTLVTVSS chain 2: DIQMTQSPSSLSASVGDRVTITCGASENIYGALNWYQQKPGKAPKLLIYGATNLADGVPSRFSGSGSGTDFTLTISSLQPEDFATYYCQNVLNTPLTFGQGTKVEIK |  | 492 |
| unnamed (protein) chain 1: QVQLVQSGAEVKKPGASVKVSCKASGYIFSNYWIQWVRQAPGQGLEWMGEILPGSGSTEYTENFKDRVTMTRDTSTSTVYMELSSLRSEDTAVYYCARDRSYGDSSWALDAWGQGTLVTVSS chain 2: DIQMTQSPSSLSASVGDRVTITCGASENIYGALNWYQQKPGKAPKLLIYGATNLADGVPSRFSGSGSGTDFTLTISSLQPEDFATYYCQNVLNTPLTFGQGTKVEIK |  | 3980 |
| unnamed (protein) chain 1: QVQLVQSGAEVKKPGASVKVSCKASGYIFSNYWIQWVRQAPGQGLEWMGEILPGSGSTEYTENFKDRVTMTRDTSTSTVYMELSSLRSEDTAVYYCARLRYGDTPTIYFDYWGQGTLVTVSS chain 2: DIQMTQSPSSLSASVGDRVTITCGASENIYGALNWYQQKPGKAPKLLIYGATNLADGVPSRFSGSGSGTDFTLTISSLQPEDFATYYCQNVLNTPLTFGQGTKVEIK |  | 469 |
| unnamed (protein) chain 1: QVQLVQSGAEVKKPGASVKVSCKASGYIFSNYWIQWVRQAPGQGLEWMGEILPGSGSTEYTENFKDRVTMTRDTSTSTVYMELSSLRSEDTAVYYCARYRWGDTPIIYFDYWGQGTLVTVSS chain 2: DIQMTQSPSSLSASVGDRVTITCGASENIYGALNWYQQKPGKAPKLLIYGATNLADGVPSRFSGSGSGTDFTLTISSLQPEDFATYYCQNVLNTPLTFGQGTKVEIK |  | 502 |
| unnamed (protein) chain 1: QVQLVQSGAEVKKPGASVKVSCKASGYIFSNYWIQWVRQAPGQGLEWMGEILPGSGSTEYTENFKDRVTMTRDTSTSTVYMELSSLRSEDTAVYYCARLRYGDTPFIYFDYWGQGTLVTVSS chain 2: DIQMTQSPSSLSASVGDRVTITCGASENIYGALNWYQQKPGKAPKLLIYGATNLADGVPSRFSGSGSGTDFTLTISSLQPEDFATYYCQNVLNTPLTFGQGTKVEIK |  | 937 |
| unnamed (protein) chain 1: QVQLVQSGAEVKKPGASVKVSCKASGYIFSNYWIQWVRQAPGQGLEWMGEILPGSGSTEYTENFKDRVTMTRDTSTSTVYMELSSLRSEDTAVYYCARLRWGDTPIIYFDYWGQGTLVTVSS chain 2: DIQMTQSPSSLSASVGDRVTITCGASENIYGALNWYQQKPGKAPKLLIYGATNLADGVPSRFSGSGSGTDFTLTISSLQPEDFATYYCQNVLNTPLTFGQGTKVEIK |  | 749 |
| unnamed (protein) chain 1: QVQLVQSGAEVKKPGASVKVSCKASGYIFSNYWIQWVRQAPGQGLEWMGEILPGSGSTEYTENFKDRVTMTRDTSTSTVYMELSSLRSEDTAVYYCARYRYGDTPYIYFDYWGQGTLVTVSS chain 2: DIQMTQSPSSLSASVGDRVTITCGASENIYGALNWYQQKPGKAPKLLIYGATNLADGVPSRFSGSGSGTDFTLTISSLQPEDFATYYCQNVLNTPLTFGQGTKVEIK |  | 583 |

Further lines, results first:

| Kd (ACVR2B, Q13705) [nM] | Kd (C5, P01031) [nM] | Binder |
| --- | --- | --- |
|  | 325 | unnamed (protein) chain 1: QVQLVQSGAEVKKPGASVKVSCKASGYIFSNYWIQWVRQAPGQGLEWMGEILPGSGSTEYTENFKDRVTMTRDTSTSTVYMELSSLRSEDTAVYYCARDRFDVASGSSFDFWGQGTLVTVSS chain 2: DIQMTQSPSSLSASVGDRVTITCGASENIYGALNWYQQKPGKAPKLLIYGATNLADGVPSRFSGSGSGTDFTLTISSLQPEDFATYYCQNVLNTPLTFGQGTKVEIK |
|  | 162 | unnamed (protein) chain 1: QVQLVQSGAEVKKPGASVKVSCKASGYIFSNYWIQWVRQAPGQGLEWMGEILPGSGSTEYTENFKDRVTMTRDTSTSTVYMELSSLRSEDTAVYYCARYYWGDTPIIYFDYWGQGTLVTVSS chain 2: DIQMTQSPSSLSASVGDRVTITCGASENIYGALNWYQQKPGKAPKLLIYGATNLADGVPSRFSGSGSGTDFTLTISSLQPEDFATYYCQNVLNTPLTFGQGTKVEIK |
|  | 280 | unnamed (protein) chain 1: QVQLVQSGAEVKKPGASVKVSCKASGYIFSNYWIQWVRQAPGQGLEWMGEILPGSGSTEYTENFKDRVTMTRDTSTSTVYMELSSLRSEDTAVYYCARFRYGDTPIIYFDYWGQGTLVTVSS chain 2: DIQMTQSPSSLSASVGDRVTITCGASENIYGALNWYQQKPGKAPKLLIYGATNLADGVPSRFSGSGSGTDFTLTISSLQPEDFATYYCQNVLNTPLTFGQGTKVEIK |
|  | 324 | unnamed (protein) chain 1: QVQLVQSGAEVKKPGASVKVSCKASGYIFSNYWIQWVRQAPGQGLEWMGEILPGSGSTEYTENFKDRVTMTRDTSTSTVYMELSSLRSEDTAVYYCARLYYGDTPIIYFDYWGQGTLVTVSS chain 2: DIQMTQSPSSLSASVGDRVTITCGASENIYGALNWYQQKPGKAPKLLIYGATNLADGVPSRFSGSGSGTDFTLTISSLQPEDFATYYCQNVLNTPLTFGQGTKVEIK |
|  | 204 | unnamed (protein) chain 1: QVQLVQSGAEVKKPGASVKVSCKASGYIFSNYWIQWVRQAPGQGLEWMGEILPGSGSTEYTENFKDRVTMTRDTSTSTVYMELSSLRSEDTAVYYCARYYWGDTPYIYFDYWGQGTLVTVSS chain 2: DIQMTQSPSSLSASVGDRVTITCGASENIYGALNWYQQKPGKAPKLLIYGATNLADGVPSRFSGSGSGTDFTLTISSLQPEDFATYYCQNVLNTPLTFGQGTKVEIK |
|  | 385 | unnamed (protein) chain 1: QVQLVQSGAEVKKPGASVKVSCKASGYIFSNYWIQWVRQAPGQGLEWMGEILPGSGSTEYTENFKDRVTMTRDTSTSTVYMELSSLRSEDTAVYYCARYRYGDTPFIYFDYWGQGTLVTVSS chain 2: DIQMTQSPSSLSASVGDRVTITCGASENIYGALNWYQQKPGKAPKLLIYGATNLADGVPSRFSGSGSGTDFTLTISSLQPEDFATYYCQNVLNTPLTFGQGTKVEIK |
|  | 96.3 | unnamed (protein) chain 1: QVQLVQSGAEVKKPGASVKVSCKASGYIFSNYWIQWVRQAPGQGLEWMGEILPGSGSTEYTENFKDRVTMTRDTSTSTVYMELSSLRSEDTAVYYCARYYYGDTPFIYFDYWGQGTLVTVSS chain 2: DIQMTQSPSSLSASVGDRVTITCGASENIYGALNWYQQKPGKAPKLLIYGATNLADGVPSRFSGSGSGTDFTLTISSLQPEDFATYYCQNVLNTPLTFGQGTKVEIK |
|  | 111 | unnamed (protein) chain 1: QVQLVQSGAEVKKPGASVKVSCKASGYIFSNYWIQWVRQAPGQGLEWMGEILPGSGSTEYTENFKDRVTMTRDTSTSTVYMELSSLRSEDTAVYYCARYYYGDTPTIYFDYWGQGTLVTVSS chain 2: DIQMTQSPSSLSASVGDRVTITCGASENIYGALNWYQQKPGKAPKLLIYGATNLADGVPSRFSGSGSGTDFTLTISSLQPEDFATYYCQNVLNTPLTFGQGTKVEIK |
